These results are taken from patent US9383360B2, “Compositions and methods relating to lyme disease” (The United States of America, as represented by the …, priority 2012, dated 2016).

Experiment [1] addresses Versican (Homo sapiens, UniProt P13611). Description: BbHtrA proteolysis assay, versican substrate. It is filed as biochemical. As to conditions: SDS-PAGE, FIG. 5. How it is done:
(§1) For proteolysis assays described in Examples herein, purified protein substrates (200-600 nM) and proteases (100-150 nM) were diluted in assay buffer (50 mM HEPES, pH 7.4, 5 mM CaCl2) and incubated overnight at 37° C. Samples were boiled for 4 minutes to inactivate the proteases. Proteoglycans were deglycosylated by overnight incubation at 37° C. with 0.01 U chondroitinase ABC (Seikagaku). Reactions were stopped by the addition of SDS/PAGE sample buffer, boiled for 4 minutes, and electrophoresed on pre-cast Tris-glycine gels (BioRad). Reaction products were visualized by silver staining.
(§2) Purified proteins were incubated with BbHtrA or BbHtrA^S226A as described herein. HtrA (also known as DegP) proteases belong to the family of serine proteases which contain a highly reactive serine residue in their active site. This serine (Ser210 in DegP) is part of the canonical His-Ser-Asp catalytic triad and mutation of the catalytic serine abolishes proteolytic activity (Skorko-Glonek et al., 1995). In BbHtrA, residues His119, Ser226 and Asp149 form the catalytic triad and mutation of serine 226 to alanine abolished proteolytic activity as expected (FIG. 5).
(§3) Reaction products were separated by SDS-PAGE and silver stained. Native collagen II and recombinant tenascin C were not degraded by BbHtrA indicating selectivity for proteoglycans, E-cadherin and fibronectin. […]

Experiment [2] has as its target T1, Aggrecan (Bos taurus, UniProt P13608).
T1 construct: recombinant human aggrecan (G1-IGD-G2 domains)
Description: BbHtrA proteolysis assay, aggrecan substrate. Type of experiment: biochemical, bovine, human. To be noted: native bovine aggrecan, SDS-PAGE, FIG. 4B. How it is done: as §1
(§4) BbHtrA cleaved recombinant human aggrecan (G1-IGD-G2 domains) within the IGD (FIG. 4A). Cleavage of recombinant aggrecan generated three high molecular weight proteolytic fragments which migrated at ˜110 kd, ˜60 kd and ˜50 kd.
(§5) BbHtrA also degraded native, fully glycosylated aggrecan (FIG. 4B, lane 5). Again, this degradation required BbHtrA catalytic activity (FIG. 4B, lane 6). The BbHtrA-generated aggrecan fragments appear to be a doublet, unlike those generated by HtrA1.
as §2
(§6) Reaction products were separated by SDS-PAGE and silver stained. Native collagen II and recombinant tenascin C were not degraded by BbHtrA indicating selectivity for proteoglycans, E-cadherin and fibronectin. FIG. 5 is an image of SDS-PAGE analysis showing that BbHtrA degrades aggrecan, neurocan, versican, brevican, biglycan, decorin, E-cadherin, and casein.

Experiment [3] deals with Aggrecan. The experiment in a line: BbHtrA proteolysis assay, aggrecan substrate. Type of experiment: biochemical, bovine, human. As to conditions: SDS-PAGE. The procedure:
as §1, §4, §5, §2, §6

Experiment [4] relates to Casein. The experiment in a line: BbHtrA proteolysis assay, casein substrate. Type of experiment: biochemical, bovine. To be noted: SDS-PAGE, FIG. 5. The procedure:
as §1, §2, §3

Experiment [5] has as its target Tenascin C (Homo sapiens, UniProt P24821). Description: BbHtrA proteolysis assay, tenascin C substrate. It is filed as biochemical. To be noted: SDS-PAGE, silver stain. The procedure:
as §1, §2, §3

Experiment [6] has as its target T2, Brevican (Homo sapiens, UniProt Q96GW7).
T2 sequence (Q96GW7 23-911): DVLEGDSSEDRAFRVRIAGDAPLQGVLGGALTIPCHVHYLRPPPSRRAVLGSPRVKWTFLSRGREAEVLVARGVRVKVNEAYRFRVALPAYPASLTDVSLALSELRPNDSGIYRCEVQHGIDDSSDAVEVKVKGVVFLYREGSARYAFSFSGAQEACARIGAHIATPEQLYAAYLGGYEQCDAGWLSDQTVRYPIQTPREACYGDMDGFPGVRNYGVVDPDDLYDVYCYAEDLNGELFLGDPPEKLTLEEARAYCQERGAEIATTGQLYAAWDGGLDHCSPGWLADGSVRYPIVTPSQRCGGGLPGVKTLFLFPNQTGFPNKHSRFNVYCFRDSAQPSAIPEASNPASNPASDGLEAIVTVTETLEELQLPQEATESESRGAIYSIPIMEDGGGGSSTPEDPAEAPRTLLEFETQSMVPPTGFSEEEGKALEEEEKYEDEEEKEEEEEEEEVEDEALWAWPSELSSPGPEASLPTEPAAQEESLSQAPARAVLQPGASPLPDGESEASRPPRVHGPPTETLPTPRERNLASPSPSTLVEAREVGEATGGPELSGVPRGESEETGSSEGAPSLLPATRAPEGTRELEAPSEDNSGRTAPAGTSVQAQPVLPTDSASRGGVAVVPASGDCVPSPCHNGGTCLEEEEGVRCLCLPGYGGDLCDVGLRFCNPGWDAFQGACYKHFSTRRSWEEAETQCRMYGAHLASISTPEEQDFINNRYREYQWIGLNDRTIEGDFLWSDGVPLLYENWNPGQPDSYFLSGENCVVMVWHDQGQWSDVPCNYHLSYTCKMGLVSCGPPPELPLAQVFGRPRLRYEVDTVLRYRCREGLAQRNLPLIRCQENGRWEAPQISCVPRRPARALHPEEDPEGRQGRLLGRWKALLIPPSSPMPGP
The experiment in a line: BbHtrA proteolysis assay, brevican substrate. As to conditions: SDS-PAGE, FIG. 5. It is filed as biochemical. How it is done: as §1, §2, §3

Experiment [7] concerns Plasma fibronectin. The experiment in a line: BbHtrA proteolysis assay, plasma fibronectin substrate. To be noted: incubated overnight or 96 hours, SDS-PAGE, FIG. 8A. Type of experiment: biochemical, human. How it is done:
as §1
BbHtrA generates pro-inflammatory amino terminal (Fnf-29) and carboxyl terminal (FnIII13-14) fibronectin fragments. […] Fibronectin was incubated with BbHtrA overnight (FIG. 8A, lane 1) or for 96 hours (FIG. 8A, lane 3). Reaction products were separated electrophoretically, and the bands were excised and analyzed by tandem LC MS/MS, FIG. 8B.

Experiment [8] deals with T3, E-cadherin (Homo sapiens, UniProt P12830).
T3 sequence (P12830 155-882): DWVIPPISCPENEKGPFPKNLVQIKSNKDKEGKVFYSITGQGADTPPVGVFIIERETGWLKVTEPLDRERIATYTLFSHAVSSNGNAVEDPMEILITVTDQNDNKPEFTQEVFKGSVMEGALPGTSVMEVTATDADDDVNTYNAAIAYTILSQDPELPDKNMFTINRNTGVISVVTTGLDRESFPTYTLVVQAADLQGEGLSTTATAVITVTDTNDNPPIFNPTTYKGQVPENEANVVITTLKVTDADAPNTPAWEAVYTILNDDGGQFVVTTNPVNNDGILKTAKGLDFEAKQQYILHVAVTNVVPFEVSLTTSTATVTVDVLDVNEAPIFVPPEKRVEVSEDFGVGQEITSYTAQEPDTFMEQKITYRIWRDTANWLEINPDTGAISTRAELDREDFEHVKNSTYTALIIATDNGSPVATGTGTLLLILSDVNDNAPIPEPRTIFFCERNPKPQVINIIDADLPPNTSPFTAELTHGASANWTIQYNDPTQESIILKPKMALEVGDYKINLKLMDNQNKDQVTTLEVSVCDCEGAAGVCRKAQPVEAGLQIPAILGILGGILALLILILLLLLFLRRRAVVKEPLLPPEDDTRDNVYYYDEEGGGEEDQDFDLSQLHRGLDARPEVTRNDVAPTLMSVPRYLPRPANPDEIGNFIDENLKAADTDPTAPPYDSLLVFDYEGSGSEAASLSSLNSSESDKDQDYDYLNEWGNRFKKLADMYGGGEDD
The experiment in a line: BbHtrA proteolysis assay, E-cadherin substrate. Type of experiment: biochemical. To be noted: SDS-PAGE, FIG. 5. How it is done: as §1, §2, §3

Versican, sequence (P13611 21-3396): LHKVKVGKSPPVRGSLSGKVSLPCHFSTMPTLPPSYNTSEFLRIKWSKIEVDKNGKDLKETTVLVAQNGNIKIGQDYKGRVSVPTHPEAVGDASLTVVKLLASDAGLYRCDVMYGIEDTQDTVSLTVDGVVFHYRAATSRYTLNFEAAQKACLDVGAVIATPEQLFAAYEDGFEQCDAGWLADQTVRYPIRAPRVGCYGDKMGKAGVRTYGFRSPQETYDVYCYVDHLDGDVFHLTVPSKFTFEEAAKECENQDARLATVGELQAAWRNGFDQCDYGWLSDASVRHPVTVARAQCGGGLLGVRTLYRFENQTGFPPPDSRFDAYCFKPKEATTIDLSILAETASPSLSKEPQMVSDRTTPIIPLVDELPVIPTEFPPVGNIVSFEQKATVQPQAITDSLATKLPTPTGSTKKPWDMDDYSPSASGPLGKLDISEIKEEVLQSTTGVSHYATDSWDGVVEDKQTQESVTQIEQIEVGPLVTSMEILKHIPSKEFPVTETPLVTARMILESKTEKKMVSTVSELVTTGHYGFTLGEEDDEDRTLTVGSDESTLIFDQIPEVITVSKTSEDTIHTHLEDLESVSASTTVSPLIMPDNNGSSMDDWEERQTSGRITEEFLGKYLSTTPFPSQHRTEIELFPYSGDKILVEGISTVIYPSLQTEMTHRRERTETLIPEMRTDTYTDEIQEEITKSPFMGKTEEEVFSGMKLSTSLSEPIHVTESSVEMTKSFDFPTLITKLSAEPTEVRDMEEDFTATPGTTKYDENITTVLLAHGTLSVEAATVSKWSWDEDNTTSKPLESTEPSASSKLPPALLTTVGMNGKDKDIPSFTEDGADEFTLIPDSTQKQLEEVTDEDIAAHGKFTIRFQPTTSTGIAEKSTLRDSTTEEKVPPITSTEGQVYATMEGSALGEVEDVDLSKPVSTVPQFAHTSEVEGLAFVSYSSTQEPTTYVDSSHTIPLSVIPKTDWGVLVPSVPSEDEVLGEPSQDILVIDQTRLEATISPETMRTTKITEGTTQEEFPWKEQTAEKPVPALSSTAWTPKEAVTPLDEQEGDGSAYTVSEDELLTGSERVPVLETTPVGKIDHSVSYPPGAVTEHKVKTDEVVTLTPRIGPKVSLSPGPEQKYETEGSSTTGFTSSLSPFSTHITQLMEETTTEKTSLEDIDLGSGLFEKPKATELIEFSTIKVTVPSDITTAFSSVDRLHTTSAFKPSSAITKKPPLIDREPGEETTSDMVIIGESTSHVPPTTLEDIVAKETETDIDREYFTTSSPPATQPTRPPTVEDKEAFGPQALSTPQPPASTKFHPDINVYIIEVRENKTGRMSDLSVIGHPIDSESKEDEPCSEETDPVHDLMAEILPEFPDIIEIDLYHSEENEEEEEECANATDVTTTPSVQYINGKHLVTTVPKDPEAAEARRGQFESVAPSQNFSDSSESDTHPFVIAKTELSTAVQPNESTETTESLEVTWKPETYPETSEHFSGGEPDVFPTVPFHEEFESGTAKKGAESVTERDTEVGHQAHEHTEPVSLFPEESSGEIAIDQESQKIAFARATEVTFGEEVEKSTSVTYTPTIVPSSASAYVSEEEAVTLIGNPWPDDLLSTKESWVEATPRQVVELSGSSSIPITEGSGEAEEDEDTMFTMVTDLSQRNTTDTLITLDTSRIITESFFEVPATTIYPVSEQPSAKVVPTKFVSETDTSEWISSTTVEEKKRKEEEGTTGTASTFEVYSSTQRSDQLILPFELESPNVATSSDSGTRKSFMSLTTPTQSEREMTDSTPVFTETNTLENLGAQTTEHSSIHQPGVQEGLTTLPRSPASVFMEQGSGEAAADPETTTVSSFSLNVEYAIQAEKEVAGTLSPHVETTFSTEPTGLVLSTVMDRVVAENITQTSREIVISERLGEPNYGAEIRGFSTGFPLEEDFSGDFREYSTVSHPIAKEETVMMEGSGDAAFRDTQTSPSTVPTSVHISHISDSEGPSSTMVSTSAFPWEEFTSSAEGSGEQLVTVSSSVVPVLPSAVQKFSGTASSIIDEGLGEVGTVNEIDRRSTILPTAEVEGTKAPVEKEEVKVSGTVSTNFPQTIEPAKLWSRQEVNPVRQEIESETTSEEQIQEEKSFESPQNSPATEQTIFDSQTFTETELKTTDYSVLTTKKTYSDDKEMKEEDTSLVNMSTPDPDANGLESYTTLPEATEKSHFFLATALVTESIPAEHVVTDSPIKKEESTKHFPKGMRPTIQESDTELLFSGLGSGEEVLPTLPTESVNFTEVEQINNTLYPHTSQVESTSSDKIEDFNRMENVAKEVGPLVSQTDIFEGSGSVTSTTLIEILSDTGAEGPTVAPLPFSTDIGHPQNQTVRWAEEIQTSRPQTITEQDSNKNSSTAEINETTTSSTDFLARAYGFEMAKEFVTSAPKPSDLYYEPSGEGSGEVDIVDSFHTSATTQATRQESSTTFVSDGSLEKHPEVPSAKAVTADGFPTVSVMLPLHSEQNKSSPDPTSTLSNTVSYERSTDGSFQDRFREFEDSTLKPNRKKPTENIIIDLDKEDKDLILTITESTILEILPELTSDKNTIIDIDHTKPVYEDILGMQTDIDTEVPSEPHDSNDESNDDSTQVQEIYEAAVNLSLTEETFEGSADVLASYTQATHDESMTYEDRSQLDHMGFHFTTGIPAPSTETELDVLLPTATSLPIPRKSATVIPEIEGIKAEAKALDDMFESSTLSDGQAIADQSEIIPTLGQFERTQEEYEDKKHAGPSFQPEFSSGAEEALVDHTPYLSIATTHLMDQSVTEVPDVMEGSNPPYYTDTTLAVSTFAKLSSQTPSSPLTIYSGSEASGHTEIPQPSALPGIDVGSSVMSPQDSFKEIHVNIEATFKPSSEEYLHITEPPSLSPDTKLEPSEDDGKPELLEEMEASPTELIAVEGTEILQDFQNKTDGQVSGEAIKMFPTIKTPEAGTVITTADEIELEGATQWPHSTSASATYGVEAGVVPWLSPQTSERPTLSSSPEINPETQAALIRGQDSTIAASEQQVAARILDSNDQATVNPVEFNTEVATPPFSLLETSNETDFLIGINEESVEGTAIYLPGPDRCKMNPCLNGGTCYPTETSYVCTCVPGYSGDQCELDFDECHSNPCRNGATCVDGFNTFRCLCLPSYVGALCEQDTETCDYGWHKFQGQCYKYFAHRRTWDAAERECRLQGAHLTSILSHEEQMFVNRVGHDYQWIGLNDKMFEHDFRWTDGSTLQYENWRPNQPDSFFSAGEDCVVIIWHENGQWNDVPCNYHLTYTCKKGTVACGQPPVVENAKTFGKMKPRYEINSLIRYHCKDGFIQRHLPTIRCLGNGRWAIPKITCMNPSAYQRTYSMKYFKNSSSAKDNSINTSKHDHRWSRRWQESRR

B1: BbHtrA: Recombinant wild type B. burgdorferi HtrA serine protease, mature protein amino acids 38-474, expressed in E. coli (SEQ ID NO:1, 9) (protein, listed as Borrelia burgdorferi)
chain: EEKDNTVRALQDSFREVSKKILPSSVEVHATGVIKQSFPIPFFFFDMPEFDSERKSNWAGSGVIIGRDSQKKSLFYVVTNSHVVDKATELEVVSYDKKKHKAKLIGKDEKKDIALISFESDDATIKVADLGDSDKLEIGDWVMAVGSPFQFSFTVTAGIVSGLQRSANPNLQSRNLFIQTDAAINRGNSGGPLVNIKGEVIGINAWIASNSGGNIGLGFAIPVNNIKSTVDFFLKGKKIESAWLGISFYPLKTRDSEVLKSLGVESNDVSAAIIASLYPGSPAVKSGLRAGDIIMKVNGVSMSVFQDVTSYISDFYAGEKVNVEILRGNVKKNIEIVLAVRPKDKELSSSKMLPGFVVYPLVEDIKAQLNLRNWIKGVVVDYIDKNLASNIKMKSGDVILSVNSKSVSNLREFYDALEVGKNTYKILRGNDSFKITF
As to B1, the Degradation of versican result in experiment [1] is on record as “degrades”. The “Degradation of native, fully glycosylated aggrecan” value in experiment [2] is recorded as “degraded”. Further, in experiment [3] (FIG. 5), the Degradation of aggrecan entry is listed as “degrades”. Moreover, in experiment [3] (silver stain, FIG. 4A), the “Cleavage of recombinant human aggrecan (G1-IGD-G2 domains) within the IGD” value is recorded as “cleaved”. In addition, in experiment [4], the Degradation of casein entry is “degrades”. Further, the “Degradation of recombinant tenascin C” value in experiment [5] is “not degraded”. Besides, the Degradation of brevican result in experiment [6] was “degrades”. The Degradation of fibronectin entry in experiment [7] is recorded as “yielded distinct product bands”. In addition, the “Degradation of E-cadherin” value in experiment [8] is on record as “degrades”.
